Laboratory results: the nanobody polyreactivity screen of Harvey et al. (2022)

Experiment: yeast display, Sf9 membrane polyspecificity reagent, FACS + sequencing; frameworks hold sequencing errors
Outline: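 In a synthetic yeast display library (Saccharomyces cerevisiae BJ5465), nanobody expression was induced with galactose for 36–48 hours. FACS gates were set low and high (top ~1%) using anti-HA fluorescence for expression and streptavidin fluorescence for binding of the Sf9 membrane reagent. Each polyreactivity label is drawn from the gate of origin.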

Sequence	polyreactivity (PSR sort gate)
QVQLVESGGGLVQAGGSLRLSCAASGRTFQYYTMGWYRQAPGKEREFVAALRDSGGSTYYADSVKGRFTISRDNAKNTVYLQMNSLKPEDTAVYYCAAYRPRKYDYWGQGTQVTVSS	high polyreactivity
QVQLVESGGGLVQAGGSLRLSCAASGFIFSGNAMGWYILAPGKERELVAGIRSLGGTTSYADSVKGRFTISRDNAKNTVYLQMNSMKPEDTAVYYCAAGYGAEFDYWGQGTQVTVSS	low polyreactivity
QVQLVESGGGLVQAGGSLRLSCAASGSTFHRYAMGWSRQAPGKERELVAAISLSGGRTYYADSVKGRFTISRDNAKNTVYLQMNSLKPEDSAVYYCNALVPSGNGDHDYWGQGTQVTVSS	high polyreactivity
QVQLVESGGGLVQAGGSLRLSCAASGIIFVGYAMGWYRQAPGKERELVAGINCGGSTNYADSVKGRFTISRDNAKNTVYFQMNSLKPEDTAVYYCAAYPFDYYGYDYWGLGTQVTVSS	low polyreactivity
QVQLVESGGGLVQAGGSLRLSCAASGNTLYQYAMGWYRQAPGKERELVASITWSGSSTYYADSVKGRFTISRDNAKNTVYVQMNSLKPEDPAVYYCAAYGYHRDYLYDYWGQGTQVTVSS	low polyreactivity
QVQLVESGRGLVQAGGSLRLSCASSGRIFTYTAMGWYRQAPWKDSELVARITSGGNTNYADSVKGRFTISRDNAKNTVYLPMNSLKPEDTAVYYSATGLYWFTNRYGCWGLGTQVTVSS	low polyreactivity
QVQLVESGGGLVQAGGSLRLSCAASGSTFRGNAMGWYRQAPGKERELVAAISESGTDTYYADSVKGRFTISRDNAKKTVYLLMNSLKPEDTAVYYCAKDYSGTYYAQYNYWGQGTQVTVSS	low polyreactivity
QVQLVESGGGLVQAGGSLRLICAASGFIFSTYAMGWYRQAPGKERELVAAISWSGGRTNYADSVKGRFTISRDNAKNTVYLQMNSLKPEDTAVYYCARYGHSGRQYKYDYWGQGTQVTVSS	high polyreactivity
QVQLVESGGGLVQAGGSLRISCAASGSIFGYNTMGWYRQAPGKERELVAAIRGSDSSTYYADSVKGRFTISRDNAKNTVYLQMNSVIPEDTAVYYCAAKYYWGQGTQVTVSS	high polyreactivity
QVQLVESGGGLVQAGGSLRLSCAPSGRTFGRYAMGWYRQAPGKERELVAAITRSGGSTYYADSVKGRFTISRDIAKNTVYLQMNSLKPEDTAVYYCNAGWRLGRGYWGQGTEVTVSS	high polyreactivity
QVQLVESGGGLVQAGGSLRLSCAASGSTFTSYTMGWYRQAPGKERELVARITRGGGSTYYADSVKGRFTISRDNAKNTVYLQMNSLKPEDTAVYYCNAEGYLLPVGNTMDYWGQGTQVTVSS	low polyreactivity
QVQLVESGGGLVQAGGSLRLSCAASGIIFAWYAMGWYRQAPGKERELLAAISWSGGSTYYADSVKGRFTISRDNAKNTVYLQMNILKPEDSAVYYCAPFPRRQGKYDYWGKGTQVTVSS	high polyreactivity
QVQLVESGGGLVQAGGSLRLSCAASGNIFYTNAMGWYRQAPGKERELVAAISGSGGRTYYADSVKGRFTISRDNAKNTVYLQMNSLKPEDTAVYYCNAVRREYYDRTYGYWGQGTQVTVSS	low polyreactivity
QVQLVESGGGLVQAGGSLRLSCAASGHTFTINAMGWYRQAPGKERELVAAITFSGGRTYYADSVKGRFTISRDNAKNTVYLQMNSLKPEDTAVYYCAADNPGGSIYDYWGQGTQVTVSS	low polyreactivity
QVQLVESGGGLVQAGGSLRLSCAASGSIFVNYAMGWYRQAPGKERELVAAITSRGTRTYYADSVKGRFTISRDNAKNTVYLQMNSLKPEDTAVYYCAAKQVSRGVAAYDYWGQGTQVTVSS	high polyreactivity
QVQLVESGGGLVQAGGSLRLSCAASGSIFYYNAMGWYRQEPGKERELVATITSAVSTNYADSVKGRFTISRDNAKNTVYLQMNSLKPEDTAVYYCATVYSLSFELDYWGQGTQVTVSS	low polyreactivity
QVQLVESGGGLVQAGGSLRLSCAASGLIYFYAMGWYRQEPGKERELVAAISSSGGRTYYADSVKGRFTISRDNAKNTVYLQMNSLKPEDTAVYYCAVVSSHYKGPGRNGYDYWGQGTQVTVSS	high polyreactivity
